Data: article PMC11255114
Blank lines part the entries; values can stand above or below the substance they belong to.

Assays:
[1] = biological target: Anti-TRAP (AT), mature deformylated form, trimer AT3 (assembly unit) (UniProt O31466+O31466); assay: Sedimentation velocity analytical ultracentrifugation (interference optics, 50,000 rpm); details: pH 8; 25 °C; 100 mM NaCl plus 50 mM sodium phosphate; 50 mM sodium phosphate at pH 7, 7.25, 7.5 and 8 (Fig. 4 caption also lists pH 7.75)
[2] = biological target: Bacillus subtilis Anti-TRAP protein (AT), mature (deformylated) (Bacillus subtilis); assay: AUC; sedimentation velocity, interference optics, 25 °C, 50,000 rpm; 50 mM sodium phosphate, 100 mM NaCl, 0.5 mM tryptophan, 0.02 % NaN3, pH 7 to 8; 65-500 µM AT monomer; global fit in SEDPHAT to a three-state model, 4 AT3 to 2 AT6 to AT12; apparent rate constants, KD from their ratio
[3] = biological target: N-formylmethionine Anti-TRAP (fAT), trimer fAT3 none (N-terminal formylation of Met1) (UniProt O31466); assay: Small-angle X-ray scattering (SIBYLS beamline, ALS); details: pH 8, 100 mM NaCl, 50 mM sodium-phosphate
[4] = biological target: N-terminal formylmethionine Anti-TRAP (fAT) of Bacillus subtilis (Bacillus subtilis); assay: SAXS; fAT at 1, 2, 3.3, 5 and 10 mg/mL in 50 mM sodium phosphate pH 8, 100 mM NaCl, 200 µM ZnCl2, 1 mM TCEP; SIBYLS beamline; deconvolution into trimer and dodecamer
[5] = biological target: N-terminal formylmethionine Anti-TRAP (fAT) of Bacillus subtilis (Bacillus subtilis); assay: NMR solution structure; fAT3, data at 55 °C; NOEs, torsion angles, RDCs, three-fold symmetry and SAXS restraints; homo-trimer
[6] = biological target: N-terminal formylmethionine Anti-TRAP (fAT) of Bacillus subtilis (Bacillus subtilis); assay: NMR spectra (1H-15N HSQC); 3 mM fAT in 20 mM d11-Tris pH 7.5, 20 mM β-mercaptoethanol, 1 mM ZnCl2; also a pH series 6.5 to 8.0 at 25 °C; step looked at for non-binding: trimers to dodecamer

equilibrium (dissociation) constant, step 2 (2 AT6 <-> AT12) [1]: 0.05 to 50 µM (upper end of range)
Substance: Anti-TRAP (AT), mature deformylated form, trimer AT3 (assembly unit)

KD of the first step (two AT3 to AT6) [2]: 20 to 90 µM
stoichiometry N [2]: 6
Substance: Bacillus subtilis Anti-TRAP protein (AT), mature (deformylated) (natural protein)

fraction of dodecamer in fAT by SAXS deconvolution [3]: <3% at 10 mg/mL
Substance: N-formylmethionine Anti-TRAP (fAT), trimer fAT3 none (N-terminal formylation of Met1)

percent dodecamer [4]: < 3%
stoichiometry N [6]: 3
Substance: N-terminal formylmethionine Anti-TRAP (fAT) of Bacillus subtilis (natural protein)
stoichiometry N [5]: 3
